The text below walks through data of US20250250360A1 (CCBIOTECH, published 2025).

The target of the assay is T1, sulfatase 1 (SULF1) antigen.
T1 construct: also called antigen peptide
T1 peptide: CNPRPKNLDVGNKDGGSYD
The assay is described as follows: indirect ELISA, antigen coated on plate, HRP-labeled secondary antibody, A450 nm. The source says: This embodiment is directed to two antibodies (anti-GALNS specific antibody and anti-SULF1 specific antibody) and analyzes their specificity to the target proteins under different concentrations of antigen. The indirect ELISA detection method was used to conduct antibody specificity analysis, compare the specificity performance of antibodies to different concentrations of antigens, and BSA was used as the background control group for evaluation. The antigen was coated on a 96-well ELISA plate, the test antibody and the HRP-labeled secondary antibody were added for reaction, and the absorbance value was measured using a 450 nm wavelength microplate reader.

B1: anti-sulfatase 1 (SULF1) specific antibody (antibody, V domains shown)
VH: EVKLQESGAELVKPGASVKMSCKASGYTFTSYWMHWVKQRPGQGLEWIGTIDPSDSYTSYNQKFKGKATLTVDTSSSTAYMQLSSLTSEDSAVYYCTRGEYGNAMDYWGQGTSVTVSS
VL: DIVLTQTPSYLAASPGETITINCRASKSISKYLAWYQEKPGKTNKLLIYSGSTLQSGIPSRFSGSGSGTDFTLTISSLEPEDFAMYYCQQHNEYPYTFGGGTKLEIKR
notes: also called anti-SULF1 specific antibody; anti-Sulf1 specific antibody
As to B1, the binding result is on record as “binds”.
